According to article PMC10180619 (Nature Communications, 2023):

Legend:
[1] = molecular target: SARS-CoV-2 Beta receptor binding domain (SARS-CoV-2, Beta variant (B.1.351), K417N | E484K | N501Y, biotin (EZ-Link Sulfo-NHS-LC-Biotin, average of four biotins per RBD molecule)); assay: BLI; settings: both partners purified
[2] = molecular target: SARS-CoV-2 Delta receptor binding domain (SARS-CoV-2, Delta variant (B.1.617.2), L452R | T478K, biotin (EZ-Link Sulfo-NHS-LC-Biotin, average of four biotins per RBD molecule)); assay: BLI; settings: both partners purified

B1: ADI-81654 (Fab, V domains shown)
VH: QVQLKQSGPTLVKPTQTLTLTCTFSGFSLSTYGVGVGWIRQPPGKALEWLALIYYDDDKRYSPSLKSRLTITKDTSQNQVVLTMTNMDPVDTATYYCARHTIATIFDFDSWGQGTLVTVSS
VL: QSVLTQPASVSGSPGQSITISCTGTSSDVGGHNYVSWYQQHPGKAPKLMIYEVSNRPSGVSNRFSGSKSGNTASLTISGLQAEDEADYSCSSYASSTSPVVFGGVTKLTVL
Kd [1]: 2.56 nM | Kd [2]: 1.83 nM
